Results reported in article PMC2408616, “Modular Organization and Combinatorial Energetics of Proline–Tyrosine Nuclear Localization Signals” (PLoS Biology, 2008).

B1: MBP–Nab2p NLS [S. cerevisiae] / Kap104p [yeast (S. cerevisiae)] (parent complex)
chain 1: DNSQRFTQRGGGAVGKNRRGGRGGNRGGRNNNSTRFNPLAKALGMAGESNM
chain 2: MASTWKPAEDYVLQLATLLQNCMSPNPEIRNNAMEAMENFQLQPEFLNYLCYILIEGESDDVLKQHYSLQDLQNNRATAGMLLKNSMLGGNNLIKSNSHDLGYVKSNIIHGLYNSNNNLVSNVTGIVITTLFSTYYRQHRDDPTGLQMLYQLLELTSNGNEPSIKALSKIMEDSAQFFQLEWSGNTKPMEALLDSFFRFISNPNFSPVIRSESVKCINTVIPLQTQSFIVRLDKFLEIIFQLAQNDENDLVRAQICISFSFLLEFRPDKLVSHLDGIVQFMLHLITTVNEEKVAIEACEFLHAFATSPNIPEHILQPYVKDIVPILLSKMVYNEESIVLLEASNDDDAFLEDKDEDIKPIAPRIVKKKEAGNGEDADDNEDDDDDDDDEDGDVDTQWNLRKCSAATLDVMTNILPHQVMDIAFPFLREHLGSDRWFIREATILALGAMAEGGMKYFNDGLPALIPFLVEQLNDKWAPVRKMTCWTLSRFSPWILQDHTEFLIPVLEPIINTLMDKKKDVQEAAISSVAVFIENADSELVETLFYSQLLTSFDKCLKYYKKKNLIILYDAIGRFAEKCALDETAMQIILPPLIEKWALLSDSDKELWPLLECLSCVASSLGERFMPMAPEVYNRAFRILCHCVELEAKSHQDPTIVVPEKDFIITSLDLIDGLVQGLGAHSQDLLFPQGTKDLTILKIMLECLQDPVHEVRQSCFALLGDIVYFFNSELVIGNLEDFLKLIGTEIMHNDDSDGTPAVINAIWALGLISERIDLNTYIIDMSRIILDLFTTNTQIVDSSVMENLSVTIGKMGLTHPEVFSSGAFANDSNWNKWCLSVNALDDVEEKSSAYMGFLKIINLTSTEVTMSNDTIHKIVTGLSSNVEANVFAQEIYTFLMNHSAQISAINFTPDEISFLQQFTS
B2: MBP–Hrp1p NLS [S. cerevisiae] / Kap104p [yeast (S. cerevisiae)] (parent complex)
chain 1: RDRNDRDRDYNHRSGGNHRRNGRGGRGGYNRRNNGYHPYNR
chain 2: B1 chain 2

Variants of: B1
Assay: ITC; parent: 37 nM

Point of comparison: chain 1 DNSQRFTQRGGGAVGKNRRGGRGGNRGGRNNNSTRLNPLAKALGMAGESNM [chain 1 F36L], Kd 66 nM. Against it:
- chain 1 DNSQRFTQRGGGAVGKNRRGGRGGNRGGRNNNSTRANPLAKALGMAGESNM [chain 1 F36A] — 4.5-fold higher, 296 nM
- chain 1 DNSQRFTQRGGGAVGKNRRGGRGGNRGGRNNNSTHFNPLAKALGMAGESNM [chain 1 R35H] — within 1.5-fold, 63 nM
- chain 1 DNSQRFTQRGGGAVGKNKKGGKGGNKGGKNNNSTRFNPLAKALGMAGESNM [chain 1 R18K, chain 1 R19K, chain 1 R22K, chain 1 R26K, chain 1 R29K] — 3.1-fold lower, 21 nM

Variants of: B2
Assay: ITC; parent: -10.1

Point of comparison: chain 1 RDRNDRDRDYNHRSGGNHRRNGRGGRGGYNRANNGYHPYNR [chain 1 R32A], dG -10.5 kcal/mol. Against it:
- chain 1 RDRNDRDRDYNHRSGGNHKKNGKGGKGGYNRRNNGYHPYNR [chain 1 R19K, chain 1 R20K, chain 1 R23K, chain 1 R26K] — higher, -10 kcal/mol
- chain 1 RDRNDRDRDYNHRSGGNHARNGRGGRGGYNRRNNGAHPYNR [chain 1 R19A, chain 1 Y36A] — higher, -9.7 kcal/mol
- chain 1 RDRNDRDRDYNHRSGGNHRRNGRGGRGGYNRRNNGLHPYNR [chain 1 Y36L] — higher, -10 kcal/mol
- chain 1 RDRNDRDRDYNHRSGGNHRRNGRGGRGGYNARNNGYHPYNR [chain 1 R31A] — higher, -10 kcal/mol
